Data on 14 molecules can be found in patent publication US20170355730A1.

B1: peptide 31 (Table 18) (peptide)
peptide: Trimesoyl-[dF]H[dT][Pip′][2Nal]RA[dF][Dap]F[2Nal]RRRR[Dap]K
modifications: linker (positions not given here) via Trimesoyl; not fully specified (C-terminus, bridges); printed as bicyclo[Tm-(D-Phe-His-D-Thr-Pip-Nal-Arg-Ala-D-Phe)-Dap-(Phe-Nal-Arg-Arg-Arg-Arg-Dap)]-Lys
B2: peptide 28 (Table 18) (peptide)
peptide: Trimesoyl-[dF]F[dT][Pip′][2Nal]RA[dF][Dap]F[2Nal]RRRR[Dap]K
modifications: linker (positions not given here) via Trimesoyl; not fully specified (some residues, C-terminus, bridges); printed as bicyclo[Tm-(D-Phe-Phe-D-Thr-Pip-Nal-Arg-Ala-D-Phe)-Dap-(Phe-Nal-Arg-Arg-Arg-Arg-Dap)]-Lys
B3: peptide 19 (Table 18) (peptide)
peptide: Trimesoyl-P[Sar][dD][Pip′][2Nal]RR[dA][Dap]F[2Nal]RRRR[Dap]K-NH2
modifications: linker (positions not given here) via Trimesoyl; not fully specified (some residues, bridges); printed as bicyclo[Tm-(Pro-Sar-D-Asp-Pip-Nal-Arg-Arg-D-Ala)-Dap-(Phe-Nal-Arg-Arg-Arg-Arg-Dap)]-Lys
B4: peptide 26 (Table 18) (peptide)
peptide: Trimesoyl-[dF][Phe(4-F)][dT][Pip′][2Nal]RG[dA][Dap]F[2Nal]RRRR[Dap]K-NH2
modifications: linker (positions not given here) via Trimesoyl; not fully specified (some residues, bridges); printed as bicyclo[Tm-(D-Phe-4-Fpa-D-Thr-Pip-Nal-Arg-Gly-D-Ala)-Dap-(Phe-Nal-Arg-Arg-Arg-Arg-Dap)]-Lys
B5: peptide 29 (Table 18) (peptide)
peptide: Trimesoyl-[dF][Phe(3,4-F2)][dT][Pip′][2Nal]RA[dF][Dap]F[2Nal]RRRR[Dap]K
modifications: linker (positions not given here) via Trimesoyl; not fully specified (C-terminus, bridges); printed as bicyclo[Tm-(D-Phe-3,4-diFPhe-D-Thr-Pip-Nal-Arg-Ala-D-Phe)-Dap-(Phe-Nal-Arg-Arg-Arg-Arg-Dap)]-Lys
B6: peptide 32 (Table 18) (peptide)
peptide: Trimesoyl-[dF][Phe(4-Br)][dT][Pip′][2Nal]RA[dF][Dap]F[2Nal]RRRR[Dap]K
modifications: linker (positions not given here) via Trimesoyl; not fully specified (C-terminus, bridges); printed as bicyclo[Tm-(D-Phe-4-BrPhe-D-Thr-Pip-Nal-Arg-Ala-D-Phe)-Dap-(Phe-Nal-Arg-Arg-Arg-Arg-Dap)]-Lys
B7: peptide 24 (Table 18) (peptide)
peptide: Trimesoyl-P[Sar][dD][Pip′][2Nal]RR[dR][Dap]F[2Nal]RRRR[Dap]K-NH2
modifications: linker (positions not given here) via Trimesoyl; not fully specified (some residues, bridges); printed as bicyclo[Tm-(Pro-Sar-D-Asp-Pip-Nal-Arg-Arg-D-Arg)-Dap-(Phe-Nal-Arg-Arg-Arg-Arg-Dap)]-Lys
B8: peptide 20 (Table 18) (peptide)
peptide: Trimesoyl-P[Sar][dD][Pip′][2Nal]RD[dA][Dap]F[2Nal]RRRR[Dap]K-NH2
modifications: linker (positions not given here) via Trimesoyl; not fully specified (some residues, bridges); printed as bicyclo[Tm-(Pro-Sar-D-Asp-Pip-Nal-Arg-Asp-D-Ala)-Dap-(Phe-Nal-Arg-Arg-Arg-Arg-Dap)]-Lys
B9: peptide 34 (Table 18) (peptide)
peptide: Trimesoyl-[dV][Phe(4-F)][dT][Pip′][2Nal]RA[dA][Dap]F[2Nal]RRRR[Dap]K
modifications: linker (positions not given here) via Trimesoyl; not fully specified (C-terminus, bridges); printed as bicyclo[Tm-(D-Val-4-Fpa-D-Thr-Pip-Nal-Arg-Ala-D-Ala)-Dap-(Phe-Nal-Arg-Arg-Arg-Arg-Dap)]-Lys
B10: peptide 18 (Table 18) (peptide)
peptide: Trimesoyl-P[Sar][dD][Pip′][2Nal]RV[dA][Dap]F[2Nal]RRRR[Dap]K-NH2
modifications: linker (positions not given here) via Trimesoyl; not fully specified (some residues, bridges); printed as bicyclo[Tm-(Pro-Sar-D-Asp-Pip-Nal-Arg-Val-D-Ala)-Dap-(Phe-Nal-Arg-Arg-Arg-Arg-Dap)]-Lys
B11: peptide 30 (Table 18) (peptide)
peptide: Trimesoyl-[dF][Phe(4-Cl)][dT][Pip′][2Nal]RA[dF][Dap]F[2Nal]RRRR[Dap]K
modifications: linker (positions not given here) via Trimesoyl; not fully specified (C-terminus, bridges); printed as bicyclo[Tm-(D-Phe-4-ClPhe-D-Thr-Pip-Nal-Arg-Ala-D-Phe)-Dap-(Phe-Nal-Arg-Arg-Arg-Arg-Dap)]-Lys
B12: peptide 25 (Table 18) (peptide)
peptide: Trimesoyl-P[Sar][dD][Pip′][2Nal]RR[dD][Dap]F[2Nal]RRRR[Dap]K-NH2
modifications: linker (positions not given here) via Trimesoyl; not fully specified (some residues, bridges); printed as bicyclo[Tm-(Pro-Sar-D-Asp-Pip-Nal-Arg-Arg-D-Asp)-Dap-(Phe-Nal-Arg-Arg-Arg-Arg-Dap)]-Lys
B13: peptide 23 (Table 18) (peptide)
peptide: Trimesoyl-P[Sar][dD][Pip′][2Nal]RR[dV][Dap]F[2Nal]RRRR[Dap]K-NH2
modifications: linker (positions not given here) via Trimesoyl; not fully specified (some residues, bridges); printed as bicyclo[Tm-(Pro-Sar-D-Asp-Pip-Nal-Arg-Arg-D-Val)-Dap-(Phe-Nal-Arg-Arg-Arg-Arg-Dap)]-Lys
B14: peptide 21 (Table 18) (peptide)
peptide: Trimesoyl-[dF][Phe(4-F)][dT][Pip′][2Nal]RS[dF][Dap]F[2Nal]RRRR[Dap]K-NH2
modifications: linker (positions not given here) via Trimesoyl; not fully specified (some residues, bridges); printed as bicyclo[Tm-(D-Phe-Fpa-D-Thr-Pip-Nal-Arg-Ser-D-Phe)-Dap-(Phe-Nal-Arg-Arg-Arg-Arg-Dap)]-Lys

Starred links: 1 amine or outer side, 2 acyl side, 3 side chain; linkers in the order of their positions; H or OH if unused. Non-standard residues stand in square brackets, D forms with d. Primed or numbered codes have the meaning given here. No end group written: not given here. Trimesoyl = O=C(c1cc(C(=O)[*:2])cc(C(=O)[*:3])c1)[*:1]; Phe(3,4-F2) = N[C@@H](Cc1ccc(F)c(F)c1)C(=O)O; Phe(4-Br) = N[C@@H](Cc1ccc(Br)cc1)C(=O)O; Phe(4-Cl) = N[C@@H](Cc1ccc(Cl)cc1)C(=O)O; Phe(4-F) = N[C@@H](Cc1ccc(F)cc1)C(=O)O; 2Nal = N[C@@H](Cc1ccc2ccccc2c1)C(=O)O; Pip′ = L-homoproline (pipecolyl); Dap = NC[C@H](N)C(=O)O; Sar = CNCC(=O)O

The assay deals with Pin1 (Example 6, construct not stated) (human) (UniProt Q13526). Kind of assay: fluorescence anisotropy. Background: Fluorescence polarisation rises when a labelled molecule tumbles more slowly, as on binding a larger partner.
Usually Kd stands for the constant that tells how readily two partners part at equilibrium. Read a low Kd as a tighter complex. The molecule B1 registered a Kd of 1680 nM. Regarding B2, the dissociation constant Kd turned out to be 1260 nM.

On to B3, for which the equilibrium dissociation constant (Kd) was 720 nM. B4 showed a Kd of 740 nM. B5 displayed a Kd of 410 nM. Then B6, with 1780 nM.

Regarding B7, the dissociation constant Kd worked out at 1310 nM. In turn, B8 came in with a Kd of 3190 nM. In turn, B9 showed a Kd of 1070 nM. B10 displayed an equilibrium dissociation constant (Kd) of 1750 nM. This Kd is about 1.6-fold higher than that of the molecule before. Turning to B11, the Kd is 780 nM. With B12, the dissociation constant (Kd) is 4600 nM. Take B13: the Kd came out at 1920 nM. This Kd lies about 2.4-fold lower than the previous one. B14: the dissociation constant Kd worked out at 570 nM. This Kd is about 3.4-fold lower than that of the molecule before.
